How the values were obtained:
MS2 coat protein = assay: apparent KD of MS2 coat protein; higher = weaker reporter binding; settings: Eterna round: R107
Protocol: (§1)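 RNA-MaP round R107: designed RNA switches with theophylline, tryptophan, arginine or FMN aptamers are transcribed on-chip within common flanks. They are titrated with SNAP-549-labelled MS2 coat protein in RNA-MaP buffer (100 mM Tris pH 7.5, 80 mM KCl, 4 mM MgCl2), without ligand or with the indicated ligand. Median apparent KD per design.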

[1] = test system: K4 kissing-loop RNA reporter; assay: apparent KD of K4 kissing-loop reporter; higher = weaker reporter binding; settings: Eterna round: R107;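 also: bound reporter read as fluorescence of individual clusters on recovered sequencing chips by microscopy, with normalized cluster intensities fitted with a binding model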
Protocol: as §1, with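 “a labelled K4 kissing-loop RNA reporter” for “SNAP-549-labelled MS2 coat protein”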

[2] = input ligand: theophylline 20 uM
[3] = input ligand: theophylline 2 mM
[4] = input ligand: tryptophan 2.4 mM

Sequence | apparent KD of MS2 coat protein (MS2 coat protein; input ligand: arginine 13.2 mM) [nM] | apparent KD of MS2 coat protein (MS2 coat protein; input ligand: none) [nM] | apparent KD of MS2 coat protein (MS2 coat protein; [2]) [nM] | apparent KD of MS2 coat protein (MS2 coat protein; [3]) [nM] | apparent KD of MS2 coat protein (MS2 coat protein; [4]) [nM] | apparent KD of K4 kissing-loop reporter ([1]; input ligand: FMN 200 uM) [nM] | apparent KD of K4 kissing-loop reporter ([1]; input ligand: arginine 13.2 mM) [nM] | apparent KD of K4 kissing-loop reporter ([1]; input ligand: none) [nM] | apparent KD of K4 kissing-loop reporter [1, 2] [nM] | apparent KD of K4 kissing-loop reporter [1, 4] [nM]
AAGAACCAGACGGCCGCCACUGGCCAGACAGGGUUCAUGGAAACAUGAGGAUCACCCAUGUCUUCCAGGACCGGGUCUGAAGAGG [Esbiisin] | 8.61 | 8.56 | 9.86 | 9.33 | 11.3 | – | – | – | – | –
AAGACAUGAGGAUCACCCAUGUCGUGUGAACGAGGACCGGUACGGCCGCCACUCGUUUGAAAAUAAACGAAUGCGGCCUGGGAAA [Exclusion Tryp A GF1] | 11.1 | – | 13.4 | 12.3 | – | – | – | – | – | –
AAGACCAGGAGGUGAUCCUAACUGGUCCAACGAGGACCGGUACGGCCGCCACUCGAAUAAACAUGAGGAUCACCCAUGUAAUAAU [T''-M-T'-T-MS2] | 58.7 | – | 101 | 90.1 | – | – | – | – | – | –
AAGAUAAGUACUGAUACCAGAGACAUGAGGAUCACCCAUGUCAAAUAAUAAUACCUCAGACUCCCUUGGCAGCAGGAUAAAUGAG [Exclusion Theophylline B GF1] | 10.9 | 11.7 | 19.9 | 19.2 | 12.1 | – | – | – | – | –
AAGGACAUGAGGAUCACCCAUGUAGAGGAGCGAGGACCGGUACGGCCGCCACUCGGUGACAUUCGAUAAUGCCGAAUAAGACAUC [theeternabot_sameState_MS2_Trp_A_47] | 26.8 | – | 33.2 | 24.6 | – | – | – | – | – | –
AAGGGACAUGAGGAUCACCCAUGUACCGAAGGAGCGGCAGAGAUGCCAGGUAGGUCGCGGUACUUGCCGGGUCAUUCAUGCAAAA [Teanbe] | 16.4 | 18.8 | 23.5 | 21.9 | 21.8 | – | – | – | – | –
AAGGGAGAGUCAGAUACCAGAGUAAGAUGGCAUGGUAAUUACAUGAGGAUCACCCAUGUAUUCCCUUGGCAGCUGACCCUACGUU [Exclusion Theophylline B GF 19] | 17.6 | 14.1 | 16.7 | 16.6 | 12.8 | – | – | – | – | –
AAUAACAUGAGGAUCACCCAUGUAAAAGAUACCAGAUGCAUGAUGAUCCCUUGGCAGCUUAAAACGCGAUUGGAAACAAUCGCGA [Mat - Same State Theophlline A - Mod of Eli - D13] | 46.1 | – | 93.4 | – | 30.8 | – | – | – | – | –
AAUAACAUGAGGAUCACCCAUGUAAGUAAACGAGGACCGGUACGGCCGCCACUCGAAUAAAUAAAGUACCGGUAAGAUCCAUAGA [Default title] | 17.9 | – | 25.9 | 22.5 | – | – | – | – | – | –
AAUAUAAGUGUAAUUAUAUUUAUAUCUGAUACCAGACUCUCAUGUGUCCCUUGGCAGCAGUUACAUGAGGAUCACCCAUGUAUUA [JR_Nu_SSTheophyA_Sub025] | 30.6 | – | 67.6 | – | 73.7 | – | – | – | – | –
AAUAUAAUAGACUCGUUUUAGUAUUUGGAACGAGGACCGGUACGGCCGCCACUCGUGAUUUACAUGAGGAUCACCCAUGUUAGCA [JR_SSTryptoA_Sub003] | 15.5 | – | 18.4 | 17.5 | – | – | – | – | – | –
AAUAUAUAGACGGCCGCCACUGGAAUUAAUACAUGAGGAUCACCCAUGUGAAGAGGAUAAUAACACAGGACCGGGUCUUCAUGUA [SS Tryp B Tesla 1.2] | 68.5 | 37.4 | 137 | 452 | 138 | – | – | – | – | –
AAUCGUAAGGCGGCCGCCACUACACAUGAGGAUCACCCAUGUCUCGCAGGCUUGCGUUGGGUUAGUAGGACCGGGCCAGUAAUAA [Exclusion - Tryptophan B (Freestyle 15)] | 25.8 | 32.1 | 43.2 | 37 | 34.5 | – | – | – | – | –
AAUGUAUGGCACAUGAGGAUCACCCAUGUGCGAGGACCGGUACGGCCGCCACUCGGUCGUGGGUUCUUAUUACUAUACAUUAAUG [XTryp A #14] | 11.4 | – | 12.8 | 11.6 | – | – | – | – | – | –
AAUGUAUUCCACAUGAGGAUCACCCAUGUGCGAGGACCGGUACGGCCGCCACUCGGUGUUGGGAUCAGUUCUGAAUACAUUAAUG [XTryp A #24] | 19.1 | – | 19.2 | 20.5 | – | – | – | – | – | –
ACAAGUCCUCAUGAUACCAGCGAUGAGACAAAGUCUCAACAUGAGGAUCACCCAUGUACUCGCCCUUGGCAGCAUACGGUUUUUG [Onedxequla] | 139 | – | 373 | – | 573 | – | – | – | – | –
UUUUUCGCGUUUGAUACCAGCAGAGUUGUUCUUGUCUGGAACAUGAGUGAUGUUCAUGUCUGCCCUUGGCAGCAAACGGGAGAAG [KL-XTheo-B12] | – | – | – | – | – | 122 | 111 | 110 | 114 | 116
UUUUUUUACUGAAGGAGCGGCAAUUGAUACGUAGAUAUAGUGAUGUUAUAUAAGAUAGAGAGCCAGGUAGGUCGCAGAUUUUUUC [ExArgB.X] | – | – | – | – | – | 194 | 160 | 172 | 143 | 129

— the supplement of paper PMC9170038
